# Assays:
# [1] = biological target: rat dipeptidyl peptidase IV (rat) (UniProt P14740); experiment: 125I-labelled antibody injected in rat, scintigraphy of tissues
# [2] = biological target: rat dipeptidyl peptidase IV (rat) (UniProt P14740); experiment: Europium-labelled antibody injected in rat, time-resolved fluorescence of lung homogenate
# rat MadCam-1 (rat) [3] = biological target: rat MadCam-1 (rat) (UniProt O70540); experiment: Europium-labelled antibody injected in rat, time-resolved fluorescence of pancreas homogenate
# Chain of UniProt O70540 (O70540 20-394 limits assumed): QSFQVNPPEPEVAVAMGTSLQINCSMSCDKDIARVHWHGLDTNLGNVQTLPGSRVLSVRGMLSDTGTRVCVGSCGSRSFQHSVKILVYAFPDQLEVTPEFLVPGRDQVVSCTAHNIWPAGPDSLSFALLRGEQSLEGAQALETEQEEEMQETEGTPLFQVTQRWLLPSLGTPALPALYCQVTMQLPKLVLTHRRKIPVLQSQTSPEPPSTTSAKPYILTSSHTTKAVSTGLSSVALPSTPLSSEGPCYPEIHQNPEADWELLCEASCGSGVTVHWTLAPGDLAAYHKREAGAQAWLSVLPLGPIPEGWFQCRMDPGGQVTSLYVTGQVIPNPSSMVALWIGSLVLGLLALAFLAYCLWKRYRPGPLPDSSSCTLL
# rat MadCam-1 (rat) [4] = biological target: rat MadCam-1 (rat) (UniProt O70540); experiment: Europium-labelled antibody injected in rat, time-resolved fluorescence of small intestine homogenate
# Chain of UniProt P14740 (P14740 whole entry R38A/Q470G): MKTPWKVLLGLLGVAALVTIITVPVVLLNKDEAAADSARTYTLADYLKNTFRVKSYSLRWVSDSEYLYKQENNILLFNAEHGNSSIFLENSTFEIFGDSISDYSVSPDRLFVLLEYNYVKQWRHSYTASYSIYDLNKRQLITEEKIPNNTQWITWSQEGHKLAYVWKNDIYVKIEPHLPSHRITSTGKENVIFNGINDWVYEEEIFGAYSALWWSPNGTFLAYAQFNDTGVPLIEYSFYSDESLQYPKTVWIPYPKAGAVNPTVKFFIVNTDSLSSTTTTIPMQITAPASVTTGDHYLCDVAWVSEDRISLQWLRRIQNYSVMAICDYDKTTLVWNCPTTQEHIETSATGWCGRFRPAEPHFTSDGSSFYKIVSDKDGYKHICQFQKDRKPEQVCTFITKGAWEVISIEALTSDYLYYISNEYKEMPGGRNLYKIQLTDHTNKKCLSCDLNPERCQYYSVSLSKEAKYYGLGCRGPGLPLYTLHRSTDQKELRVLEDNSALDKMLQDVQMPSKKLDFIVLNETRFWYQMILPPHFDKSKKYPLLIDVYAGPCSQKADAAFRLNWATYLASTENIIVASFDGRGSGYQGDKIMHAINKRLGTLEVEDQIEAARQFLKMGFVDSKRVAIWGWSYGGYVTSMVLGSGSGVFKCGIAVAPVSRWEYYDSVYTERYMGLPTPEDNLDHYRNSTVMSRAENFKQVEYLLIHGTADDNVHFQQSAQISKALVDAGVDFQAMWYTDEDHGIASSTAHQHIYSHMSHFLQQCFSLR
"antibody per gram of lung tissue (5 µg dose, 5 minutes) (µg per gram of tissue) [1]","antibody per gram of lung tissue (5 µg dose, 8 hours) (µg per gram of lung tissue) [1]","percent of injected dose localized in the lung (1 µg dose, 2 hours) (% of injected dose) [1]","percent of injected dose localized in the lung (1 µg dose, 8 hours) (% of injected dose) [1]","percent of injected dose localized in the lung (5 µg dose, 5 minutes) (% of the initial antibody dose) [1]","percent of injected dose localized in the lungs (5 µg dose, 30 minutes) (% of injected dose) [2]","percent of injected dose localized in the lungs (5 µg dose, 6 hours) (% of injected dose) [2]","percent of injected dose localized to the pancreas (5 µg dose, 6 hours) (% of injected dose) (rat MadCam-1 (rat) [3])","percent of injected dose in the small intestine (5 µg dose, 6 hours) (% of injected dose) (rat MadCam-1 (rat) [4])",Substance
> 0.4,0.7,22,30,20,15,7,,,"OX-61 (Pharmingen), mouse monoclonal antibody specific for DPP-4"
,,,,,,,3,> 5,"OST-2 (Pharmingen), mouse monoclonal antibody that recognizes rat MadCam-1"
